Paper PMC3861539

Experiments:
human fibrinogen (human) = human fibrinogen (human) (UniProt P02671)
human complement C3b [1] = biological target: human complement C3b (UniProt P01024); assay: flow cytometry on bacteria; settings: Alexa488-labeled Fg 60 µg/ml; Efb (mutants) 0.5 µM; serum-opsonized S. aureus; buffer control est. 65 MFI; parent: est. 1300; read off a plot
human complement C3b [2] = biological target: human complement C3b (UniProt P01024); assay: ELISA; settings: C3b-coated wells, 50 nM Fg detected with peroxidase-conjugated anti-Fg antibody, read off a plot

Chain of UniProt P02671 (P02671 36-866, chain 1 of 3): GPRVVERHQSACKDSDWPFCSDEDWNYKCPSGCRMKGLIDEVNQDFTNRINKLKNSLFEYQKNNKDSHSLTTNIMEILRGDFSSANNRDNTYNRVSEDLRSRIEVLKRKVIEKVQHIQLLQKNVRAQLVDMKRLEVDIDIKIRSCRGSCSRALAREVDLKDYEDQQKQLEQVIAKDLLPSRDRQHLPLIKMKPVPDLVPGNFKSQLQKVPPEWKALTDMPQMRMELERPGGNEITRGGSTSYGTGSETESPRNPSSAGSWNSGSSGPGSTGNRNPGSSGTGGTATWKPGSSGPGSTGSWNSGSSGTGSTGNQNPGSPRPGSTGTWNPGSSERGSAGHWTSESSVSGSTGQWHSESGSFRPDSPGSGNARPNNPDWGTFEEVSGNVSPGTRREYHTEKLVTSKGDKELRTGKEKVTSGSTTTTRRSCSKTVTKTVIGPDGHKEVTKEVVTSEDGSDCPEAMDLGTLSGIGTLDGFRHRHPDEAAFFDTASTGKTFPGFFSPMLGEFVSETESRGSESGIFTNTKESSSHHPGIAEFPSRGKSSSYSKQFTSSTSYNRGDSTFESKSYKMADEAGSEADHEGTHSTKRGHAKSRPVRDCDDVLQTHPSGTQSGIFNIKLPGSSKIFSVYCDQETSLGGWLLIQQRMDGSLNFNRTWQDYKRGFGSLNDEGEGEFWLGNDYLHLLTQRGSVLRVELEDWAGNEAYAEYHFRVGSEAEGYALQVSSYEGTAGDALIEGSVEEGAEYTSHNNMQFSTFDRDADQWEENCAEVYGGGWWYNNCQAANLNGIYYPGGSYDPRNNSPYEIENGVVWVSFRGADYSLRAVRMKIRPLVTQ
Chain of UniProt P02671 (P02675 45-491, chain 2 of 3, further chain): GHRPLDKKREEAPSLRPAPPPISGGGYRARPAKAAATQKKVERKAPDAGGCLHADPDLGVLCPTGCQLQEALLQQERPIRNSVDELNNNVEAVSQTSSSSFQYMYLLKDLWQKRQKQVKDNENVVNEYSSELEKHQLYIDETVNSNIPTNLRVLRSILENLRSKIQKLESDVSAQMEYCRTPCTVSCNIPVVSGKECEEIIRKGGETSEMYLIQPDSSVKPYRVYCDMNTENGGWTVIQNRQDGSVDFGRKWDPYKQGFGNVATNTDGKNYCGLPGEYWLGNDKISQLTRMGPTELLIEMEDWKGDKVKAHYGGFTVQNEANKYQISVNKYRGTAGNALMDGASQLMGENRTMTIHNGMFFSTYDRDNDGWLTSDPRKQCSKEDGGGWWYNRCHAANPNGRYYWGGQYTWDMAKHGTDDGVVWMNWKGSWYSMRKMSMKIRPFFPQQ
Chain of UniProt P02671 (P02679 27-453, chain 3 of 3, further chain): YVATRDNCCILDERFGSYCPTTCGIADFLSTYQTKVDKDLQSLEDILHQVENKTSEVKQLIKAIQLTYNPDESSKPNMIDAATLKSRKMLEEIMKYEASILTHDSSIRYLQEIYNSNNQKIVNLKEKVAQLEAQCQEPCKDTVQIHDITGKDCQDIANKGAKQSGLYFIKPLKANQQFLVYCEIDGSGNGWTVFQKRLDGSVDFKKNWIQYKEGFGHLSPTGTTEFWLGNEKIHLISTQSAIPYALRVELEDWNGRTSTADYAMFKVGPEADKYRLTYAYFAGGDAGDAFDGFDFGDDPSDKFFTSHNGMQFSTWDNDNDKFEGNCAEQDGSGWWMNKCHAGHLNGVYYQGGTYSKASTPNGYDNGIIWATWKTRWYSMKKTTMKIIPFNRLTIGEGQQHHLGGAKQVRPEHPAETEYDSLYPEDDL

Row | Substance | inhibition of phagocytosis of fluorescent S. aureus by human neutrophils in 2.5% human plasma, dose response of Efb (needs the interaction with C3b as well) (human fibrinogen (human)) [µM] | response (human complement C3b [1]) [MFI] | response (human complement C3b [2]; Efb about 6 nM (fourth point, read from the x axis), parent: est. 0.93) [OD450] | response (human complement C3b [2]; Efb about 25 nM (highest point, read from the x axis), parent: est. 0.91) [OD450]
1 | His-tagged Efb, wild type (from UniProt A6QG59 30-165) (natural protein) | 0.08 |  |  | 
2 | GST-tagged full-length Extracellular fibrinogen binding protein (Efb), wild type (from UniProt A6QG59) R131E; N138E |  | 180 | 0.2 | 0.23
